For the test, the target named is LSSmGFP-PRL-3.C104D (human) (UniProt O75365). Nature of the test: FRET or BRET; in vitro FRET, competition: LSSmGFP-PRL3.C104D (250 nM) preincubated with competitor or test compound 30 min at room temperature, then HA-CBS-mScarlet3 (500 nM); 100 mM NaCl, 20 mM HEPES pH 7.5, 5% glycerol; normalised to DMSO control. (In general: Bioluminescence resonance energy transfer reports proximity on the nanometre scale.)
Sequence of LSSmGFP-PRL-3.C104D (human) (O75365 whole entry C104D): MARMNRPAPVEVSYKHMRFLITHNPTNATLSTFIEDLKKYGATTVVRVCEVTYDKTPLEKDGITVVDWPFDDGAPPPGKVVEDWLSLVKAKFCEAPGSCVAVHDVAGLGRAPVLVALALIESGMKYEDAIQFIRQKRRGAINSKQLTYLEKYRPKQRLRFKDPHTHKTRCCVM

As for “PSM-001 (cyclic peptide, PRL substrate mimic) (from UniProt Q8NE01 416-432)”, the percent reduction of the FRET signal at 50 μM stood at 40%.

For the origin of these results see paper doi:10.1101/2025.05.14.654016.
